The values below come from PMC2586299 (Developmental cell, 2008).

Positions count from the first letter of the chain named.

First the molecules themselves.
T1: full length GST-CHMP6_(1−201) (human, UniProt Q96FZ7 1-201)
T1 sequence (looked up): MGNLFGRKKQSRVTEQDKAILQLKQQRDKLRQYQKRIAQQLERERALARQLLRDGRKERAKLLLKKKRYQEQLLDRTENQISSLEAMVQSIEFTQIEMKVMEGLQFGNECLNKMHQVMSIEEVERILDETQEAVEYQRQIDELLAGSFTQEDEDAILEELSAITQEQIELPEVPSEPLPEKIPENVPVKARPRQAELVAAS

T2: GST-CHMP6 without the final 20 residues (human, UniProt Q96FZ7 1-181)
T2 sequence (looked up): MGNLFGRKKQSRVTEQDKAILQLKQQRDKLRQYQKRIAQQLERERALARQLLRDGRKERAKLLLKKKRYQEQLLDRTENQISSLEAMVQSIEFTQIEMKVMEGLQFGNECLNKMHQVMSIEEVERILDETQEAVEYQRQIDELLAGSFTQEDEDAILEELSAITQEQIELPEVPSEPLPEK

T3: VPS4A MIT_(L64D) (human, UniProt Q9UN37 1-84, L64D)
T3 sequence (looked up): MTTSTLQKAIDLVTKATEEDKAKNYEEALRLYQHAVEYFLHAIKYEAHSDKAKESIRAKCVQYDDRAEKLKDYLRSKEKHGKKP

T4: GST-CHMP6 (construct of the VPS4B measurement not stated) (human, UniProt Q96FZ7 1-201)
T4 sequence (looked up): T1 sequence (looked up)

B1: VPS4A MIT domain (VPS4A residues 1−84) (domain or fragment, human, UniProt Q9UN37 1-84, looked up)
chain: T3 sequence (looked up) with D64L
B2: VPS4B MIT domain (domain or fragment, human, UniProt O75351 4-82, looked up)
chain: TSPNLQKAIDLASKAAQEDKAGNYEEALQLYQHAVQYFLHVVKYEAQGDKAKQSIRAKCTEYLDRAEKLKEYLKNKEKK

Assay [1] deals with T1, full length GST-CHMP6_(1−201). The experiment in a line: SPR.
For assay [2], the target named is T2, GST-CHMP6 without the final 20 residues. The experiment in a line: SPR.
The target of another assay is CHMP6 MIM2 L178D (human). Description: SPR. (In general: SPR reads the build-up and loss of mass on a sensor chip optically.)
For assay [3], the target named is B1. The experiment in a line: SPR.
In a further assay the target is T3, VPS4A MIT_(L64D). Description: SPR.
For assay [4], the target named is B1. The experiment in a line: NMR solution structure.
For assay [5], the target named is T4, GST-CHMP6 (construct of the VPS4B …). The experiment in a line: SPR.

As usually defined, the Kd is the equilibrium constant for the complex coming apart. A higher Kd goes with a looser complex. Turning to B1, the figures for the Kd (in assay [1]; in assay [2]; with CHMP6 MIM2 L178D (human)) were 33 ± 7 µM, 23.2 ± 0.2 µM and 44.4 µM, respectively.
With QEQIELPEVPSEPLPEK (domain or fragment, human, UniProt Q96FZ7 165-181, looked up) [GST-CHMP6_(165−181) fragment], the Kd in assay [3] stood at 5.8 ± 0.8 µM; in the assay with VPS4A MIT_(L64D), 26.1 ± 0.8 µM.
Take LPEVPSEPLPEK (domain or fragment, human, UniProt Q96FZ7 170-181, looked up) [GST-CHMP6_(170−181) minimal fragment]: the affinity in assay [3], expressed as Kd, was 8 ± 0.1 µM.
As to EQIELPEVPSEPLPEK (peptide, UniProt Q96FZ7 166-181, looked up) [CHMP6_(166−181) MIM2 peptide], in assay [4], the binding result was “binds”.
The molecule B2 came in with a Kd in assay [5] of 786 ± 6 µM.
